± gives the standard deviation of the averaged measurements.
The sequences below were run on ATP (assay: switch fluorescence ratio, 500 uM ATP over buffer (Cy3 cluster intensity, sum of 5 cycles each) (fold (ratio)); higher = stronger signal-on switching upon ATP binding; sequences stand for … in TCGTCGGCAGCGTCAGATGTGTATAAGAGACAGTTTTTTTTTTTTTTTTTTTTTTTTT…TC). Settings: aptamer strand: ATP DNA aptamer (quencher-CACCTGGGGGAGTATTGCGGAGGAAGG + anchor), 100 nM annealed; ATP concentration: 500 uM.
Procedure, shortened: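 Per cluster, summed Cy3 intensity from the target cycles was divided by that from the buffer cycles to give the fluorescence ratio, then averaged per switch-domain sequence. Clusters outside 100-1000 RFU were excluded. The Cy3-labelled switching-strand clusters, on a modified Illumina MiSeq flow-cell, were annealed to 100 nM quencher-labelled ATP aptamer and imaged in selection buffer, then after 15 min with 500 uM ATP at 22 °C, for five cycles with NaOH stripping and re-annealing between them.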
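Also: ATP exposure 15 min at 22 °C before imaging.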

| Sequence | switch fluorescence ratio |
| --- | --- |
| AGCTGAACGG | 1.05 ± 0.025 |
| ATGTATAAAT | 0.9743 ± 0.009 |
| AATATTTGTG | 1.15 ± 0.23 |
| GTTAGGAGGC | 0.989 ± 0.062 |
| TCTTTTATTT | 0.998 ± 0.043 |
| ACCGGCGAGG | 1.01 ± 0.036 |
| GTCAATTGGG | 0.992 ± 0.044 |
| AGGGGGTGTT | 1.02 ± 0.015 |
| GAGAGTAATT | 1.01 ± 0.051 |
| CGTCGCCGGT | 1 ± 0.0078 |
| TTTTTGGGGA | 1 ± 0.025 |
| TTTTAAAAAC | 1.05 ± 0.049 |
| TTGGCCTTCC | 2.19 ± 0.74 |
| TGCATGGGTG | 1.06 ± 0.039 |
| CCCCAAAAGT | 1.12 ± 0.14 |
| ACTAGGGGCA | 0.98 ± 0.036 |
| GGGGTTCTGA | 0.974 ± 0.032 |
| TGATAGTCCT | 1.03 ± 0.013 |
| TAAATTTTGG | 1.008 ± 0.0096 |
| AGAGTGCTAC | 1.04 ± 0.027 |
| TCAGGGATTG | 0.977 ± 0.017 |
| TTTTTGTGAG | 1.01 ± 0.039 |
| GTTTGTCAGG | 0.99 ± 0.04 |
| GATTAAAGGG | 1.001 ± 0.0085 |
| TTGAATTTCT | 0.992 ± 0.016 |

| Sequence | switch fluorescence ratio |
| --- | --- |
| TTTGTTTTA | 1.01 ± 0.019 |
| ATACGTGGTG | 1.09 ± 0.086 |
| AGGTGGGGG | 0.979 ± 0.015 |
| ATAGAGAGGT | 1.01 ± 0.012 |
| TTGAAGGGTT | 0.9978 ± 0.0033 |
| GTTGCGTGCT | 0.969 ± 0.032 |
| TTTTTTTGCG | 1.02 ± 0.069 |
| GTATGAGGCG | 0.981 ± 0.04 |
| TTTTTTTAA | 0.991 ± 0.026 |
| AAGGCTTTCT | 1.02 ± 0.032 |
| TTGCGATGGT | 1.02 ± 0.012 |
| AGATGTGTCT | 1.02 ± 0.003 |
| GTTTGAGGAG | 0.986 ± 0.05 |
| CAATGTTTGC | 1.002 ± 0.0083 |
| CCAGGTAGAG | 1.32 ± 0.13 |
| TTCTTTGTGA | 1 ± 0.054 |
| GGGGACCATT | 1.01 ± 0.035 |
| TCGGTTTTGT | 0.983 ± 0.026 |
| TATGTCGGTT | 0.985 ± 0.033 |
| CTGAAAGATA | 0.977 ± 0.055 |
| TGTTTCGGTT | 0.943 ± 0.044 |
| GAAAAGAGTC | 1.07 ± 0.034 |
| TGTGGAAAGA | 0.992 ± 0.054 |
| TGTTTAATTT | 1.03 ± 0.072 |
| TCATGCATCT | 1.01 ± 0.072 |

| Sequence | switch fluorescence ratio |
| --- | --- |
| AAAAAATTTA | 0.996 ± 0.043 |
| CTAGGTCGGA | 1.01 ± 0.021 |
| GCTCATGAGC | 1.007 ± 0.0093 |
| CGGATAGAAT | 0.984 ± 0.029 |
| CAGGGTACGA | 1.05 ± 0.012 |
| AGGGAGGCAG | 1 ± 0.033 |
| ACGGGCTAGG | 1.01 ± 0.027 |
| GACTGGGTTG | 0.9668 ± 0.0011 |
| TCGGTGAGGG | 1.02 ± 0.07 |
| TTATGTATTT | 0.995 ± 0.015 |
| ATTCCCGGAT | 1.04 ± 0.046 |
| TTTGGCTAAG | 0.976 ± 0.027 |
| ATATATTGCG | 1.016 ± 0.0031 |
| ATATATGTCG | 1.07 ± 0.049 |
| AAGGAGGTCA | 0.977 ± 0.021 |
| TTATATACAG | 1.058 ± 0.0062 |
| CAGAATGGGG | 0.998 ± 0.014 |
| TGATGGGGGA | 1.01 ± 0.03 |
| TCTAGTGGGG | 1.01 ± 0.028 |
| GTATTGAAGT | 0.98469 ± 0.00015 |
| CCAAATAGGA | 1.01 ± 0.013 |
| AGGGGCCCGT | 0.99 ± 0.038 |
| GCAAAATCTG | 1.04 ± 0.06 |
| ATGGGCCCT | 0.997 ± 0.031 |
| GTTCCGGCGT | 1.21 ± 0.25 |

| Sequence | switch fluorescence ratio |
| --- | --- |
| TGGTATGCCC | 1.04 ± 0.088 |
| CGGGGAAAGA | 0.978 ± 0.03 |
| CCGCCATAAG | 3.42 ± 0.68 |
| ATCTAACGGC | 1.01 ± 0.0079 |
| TTGTTAATTT | 1.02 ± 0.05 |
| TATGGTTTTG | 1.01 ± 0.017 |
| CATGATTTGA | 1.011 ± 0.0092 |
| GACTTTGGAG | 1 ± 0.027 |
| GACTTTGGGA | 0.999 ± 0.023 |
| ATTTGGGGAC | 0.98 ± 0.016 |
| TGATTACAGT | 1 ± 0.018 |
| CCGCCAGGGG | 3.42 ± 1.8 |
| CCACTTGGTC | 1.06 ± 0.064 |
| ATACTCGTTA | 1.01 ± 0.024 |
| GAGTCCCTGA | 0.993 ± 0.032 |
| ACGGATTTGG | 0.9926 ± 0.0095 |
| TTTTCTAAGG | 0.989 ± 0.085 |
| AATCAGAAAG | 1.15 ± 0.24 |
| GCTAAATCGC | 1.04 ± 0.034 |
| TGGGGACTTA | 1.012 ± 0.0089 |
| GAAGGTTATT | 0.9939 ± 0.0047 |
| GTGTGGGGGT | 0.98 ± 0.019 |
| AGTTAGACGA | 1.01 ± 0.013 |
| CGTGTGAGAC | 1.02 ± 0.014 |
| GTGAATAGAG | 1 ± 0.027 |

| Sequence | switch fluorescence ratio |
| --- | --- |
| GAACACAAAA | 1.05 ± 0.032 |
| TGTTTGCGAA | 1.01 ± 0.045 |
| TCTTTTACTG | 1.01 ± 0.033 |
| AAGTAGGGTA | 1.03 ± 0.025 |
| TGTTATTTCA | 1.02 ± 0.0065 |
| CAAACTGTCA | 1.07 ± 0.06 |
| TCGTGGGGTG | 0.999 ± 0.042 |
| TGTTTTACTG | 0.996 ± 0.015 |
| CGTTGTAAGG | 1.01 ± 0.027 |
| TCCACCCTT | 1.03 ± 0.013 |
| GCTCACCTAT | 1.05 ± 0.048 |
| AGTGGCATTA | 0.985 ± 0.028 |
| AAAGGAAGGG | 0.989 ± 0.033 |
| AGGAGGGCTG | 0.984 ± 0.011 |
| ATTAGTTGGC | 0.993 ± 0.027 |
| CTTACAAGC | 1.04 ± 0.026 |
| GCATAATGAT | 1 ± 0.022 |
| TTTGAAGGAC | 0.992 ± 0.044 |
| GATTTCCGTG | 0.98686 ± 0.00065 |
| GGCCGGGGCT | 1.01 ± 0.026 |
| GCCGCGGGTC | 1.08 ± 0.048 |
| GATATAGTAT | 0.993 ± 0.039 |
| TATCGAGCAT | 1.028 ± 0.0096 |
| GCCGGCAAGT | 1.02 ± 0.016 |
| TTTGATACCC | 0.991 ± 0.064 |

| Sequence | switch fluorescence ratio |
| --- | --- |
| TTGGTGCCCG | 1.01 ± 0.037 |
| GCTGGCAGTG | 0.972 ± 0.029 |
| TATTTAGAGG | 1.01 ± 0.079 |
| TTAGATTGTG | 0.978 ± 0.03 |
| TGGGGCTGTG | 0.991 ± 0.014 |
| TAGAGGTGGG | 1.21 ± 0.34 |
| CACGCTTTTT | 1.15 ± 0.23 |
| GAGGTGTAGG | 1.01 ± 0.02 |
| CGTTTCAGGT | 0.994 ± 0.036 |
| GTGGGTGTGG | 1.02 ± 0.022 |
| TAGGTAAAGA | 0.98 ± 0.021 |
| GACCTTTCTG | 0.997 ± 0.025 |
| AATCTTCTAT | 1.01 ± 0.024 |
| AGAAGAAATC | 1.016 ± 0.008 |
| GGCTTAGGCA | 1.01 ± 0.04 |
| TCGGTAGCAG | 1.092 ± 0.01 |
| CTAATCCACT | 1.028 ± 0.004 |
| CTAAATGTTT | 1 ± 0.05 |
| AGTTTTGTTC | 1.01 ± 0.019 |
| GGGGTGGGCG | 1.01 ± 0.058 |
| GACGATGCCA | 1.16 ± 0.035 |
| AGCAGGTGGG | 1.05 ± 0.076 |
| TTTTGCGCGC | 0.994 ± 0.029 |
| TATTCGGTCG | 0.993 ± 0.025 |
| AAGTCAGGGG | 1.05 ± 0.13 |

| Sequence | switch fluorescence ratio |
| --- | --- |
| TTTTGAGGT | 1.02 ± 0.03 |
| AATTAATATT | 0.988 ± 0.021 |
| GTTGGGGTTG | 1.01 ± 0.025 |
| TTTTTTAGGC | 0.962 ± 0.041 |
| TACTTGCTTC | 1.02 ± 0.038 |
| TGTGTTAATA | 0.966 ± 0.013 |
| TATATGGGGC | 1.03 ± 0.03 |
| GTGTGCACTG | 0.996 ± 0.029 |
| TTTATCACGT | 0.975 ± 0.0077 |
| TTAAAAGCGG | 1.03 ± 0.013 |
| TATGGAATTT | 0.985 ± 0.009 |
| TTTCTTTAAG | 0.985 ± 0.04 |
| ATAGCTAACT | 1.02 ± 0.022 |
| TTTCGAGGGA | 1 ± 0.025 |
| GAAAGAAGGG | 1.21 ± 0.35 |
| TCCGTTAAGA | 1.083 ± 0.0019 |
| TTTTTGTTTA | 0.971 ± 0.038 |
| TACAAAAAGG | 0.981 ± 0.023 |
| GATGTTTTCT | 0.982 ± 0.054 |
| TTGGGAACGG | 1.03 ± 0.034 |
| GGGCCCTTCG | 1.018 ± 0.0047 |
| ATAATGATGT | 0.97 ± 0.026 |
| GTAGAGAGTG | 1 ± 0.02 |
| AACCATACTA | 1.19 ± 0.028 |
| TTTAAGTGAT | 1.01 ± 0.057 |

| Sequence | switch fluorescence ratio |
| --- | --- |
| TGGATCAAAT | 0.9705 ± 0.0049 |
| AGGGGCGGGT | 1.23 ± 0.46 |
| ACTGAGGCTA | 1.07 ± 0.011 |
| TTTTGCTGTT | 0.987 ± 0.033 |
| AAGTCGGATA | 1 ± 0.028 |
| TTTTGGTTGG | 0.971 ± 0.028 |
| TGGGAGCCCG | 0.9853 ± 0.0034 |
| TGGTTTGTGT | 0.981 ± 0.018 |
| CAAGGGCGGG | 0.997 ± 0.063 |
| GGTGCGTAGG | 1 ± 0.012 |
| GAAGTTACGG | 1.11 ± 0.015 |
| GTTTTTTACG | 0.998 ± 0.012 |
| GGAGGTAGTC | 0.99 ± 0.033 |
| ATTTTAGTGT | 0.968 ± 0.029 |
| TCAAGCCATC | 1.063 ± 0.0037 |
| AGTAAGGGCT | 0.99 ± 0.015 |
| GATGTCTCGA | 0.982 ± 0.079 |
| TGTAAGACCA | 1.01 ± 0.012 |
| GTTTTTGGGC | 0.985 ± 0.026 |
| GAGGAAGTCT | 1.03 ± 0.026 |
| CATTTTCTC | 1.038 ± 0.0086 |
| CTTGTGTGGT | 1.02 ± 0.014 |
| TTATAATTAG | 0.994 ± 0.046 |
| ATGCGACGGC | 1.05 ± 0.028 |
| GTTTATGTAG | 1.01 ± 0.0096 |

Source: the supplement of paper PMC10126150
